US6855495B1, “Toso as a target for drug screening” (Rigel Pharmaceuticals, Inc., priority 1998, dated 2005)
Like-named read-outs stand apart in the source and are kept apart here.

Tests used:
[1] = Gamen et al. 1996; cited from earlier work
Jurkat.ecoR cells [2] = experiment: anti-Fas mAb-induced apoptosis in Jurkat.ecoR cells expressing the construct; format: cell-based, human; conditions: for anti-Fas mAb-induced apoptosis: 10 ng/ml anti-Fas mAb, 24 hours, in words
Protocol: Jurkat cells that express the receptor for ecotropic murine retroviruses (“Jurkat.ecoR”) were infected with retroviruses that express Toso and control vectors, pBabeMN-Toso, pBabeMN-lacZ and pBabeMN-Lyt-2-α′(α′ form of mouse CD8α chain) (Tagawa, et al. (1986)). Jurkat.ecOR cells were infected with pBabeMN-lacZ, pBabeMN-Lyt-2-α′, and pBabeMN-Toso. At 72 hours postinfection, infection frequency of pBabeMN-lacZ and pBabeMN-Lyt-2α′ were determined to be 45% and 58%, respectively. Jurkat cells were then cultured with 10 ng/ml anti-Fas mAb for 24 hours. After 12 or 24 hours, the cells were stained with 100 μg/ml ethidium bromide (SIGMA) and 100 μg/ml acridine orange (SIGMA). Apoptotic cells and non-apoptotic cells were identified with UV microscopy as described (MacGahon, et al., The End of the (Cell) Line: Methods for the Study of Apoptosis in vitro, in Methods in cell biology, L. J. Schwartz and B. A. Osborne, eds., San Diego, Calif., Academic Press, Inc., pp. 172-173 (1995)).
Jurkat.ecOR cells were infected with pBabeMN-Lyt-2-α′. HA, pBabeMN-Toso. HA, pBabeMN-TosoΔ(377-390). HA, pBabeMN-TosoΔ(334-390). HA, pBabeMN-TosoΔ(281-390).HA, pBabeMNTosoΔ(252-390).HA and pBabeMN-TosoΔ(29-187).HA. Jurkat cells were cultured with 10 ng/ml anti-Fas mAb for 24 hours and apoptotic cells were counted. […] Deletions of regions of the cytoplasmic domain of Toso from 334 to 390 still inhibited apoptosis. Moreover, a deletion of Toso lacking the entire cytoplasmic domain still retained substantial anti-apoptotic ability. Thus, the cytoplasmic domain of Toso is not absolutely required for the anti-apoptotic effects on Fas antibody-stimulated cells.

Jurkat.ecoR cells [3] = experiment: staurosporine- and ceramide-induced apoptosis in Jurkat.ecoR cells; format: cell-based, human; conditions: 24 hours, any concentration
Protocol: Jurkat cells that express the receptor for ecotropic murine retroviruses (“Jurkat.ecoR”) were infected with retroviruses that express Toso and control vectors, pBabeMN-Toso, pBabeMN-lacZ and pBabeMN-Lyt-2-α′(α′ form of mouse CD8α chain) (Tagawa, et al. (1986)). Jurkat.ecOR cells were infected with pBabeMN-lacZ, pBabeMN-Lyt-2-α′, and pBabeMN-Toso. At 72 hours postinfection, infection frequency of pBabeMN-lacZ and pBabeMN-Lyt-2α′ were determined to be 45% and 58%, respectively. Jurkat cells were then cultured with 10 ng/ml anti-Fas mAb for 24 hours. After 12 or 24 hours, the cells were stained with 100 μg/ml ethidium bromide (SIGMA) and 100 μg/ml acridine orange (SIGMA). […]
Staurosporine is a bacterial alkaloid that is a broad spectrum inhibitor of protein kineses (Tamaoki and Nakano, Biotechnology, 8:732-735 (1990)) and induces programmed cell death in various cell lines and dissociated primary cells in culture (Ishizaki, et al, J. Cell Biol., 121:899-908 (1993); Jacobson, et al., Nature, 361:365-369 (1993); Raff, et al., Science. 262:695-700 (1993)). Ceramide generation is implicated in a signal transduction pathway that mediates programmed cell death induced by Fas and TNF-α (Cifone, et al., J. Exp. Med., 180:1547-1552 (1994); Obeid, et al., Science, 259:1769-1771 (1993)). pBabeMN-LacZ infected cells were counted by microscopic observation; infection frequency was determined to be 57%. […]

Jurkat.ecoR cells [4] = experiment: TNF-α-induced apoptosis in Jurkat.ecoR cells; format: cell-based, human; conditions: 1 μg/ml TNF-α with 0.1 μg/ml CHX, 12 hours, versus Lyt-2-α′
Protocol: The Fas receptor has homology to the TNF-α receptor, and these two receptors share analogous signaling systems as well as several intracellular mediators (Hsu, et al., Cell, 84:299-308 (1996)). The protective effect of Toso against TNF-α-induced apoptosis was tested by culturing Jurkat.ecOR cells expressing Lyt-2-α′ or Toso with 10 ng/ml of anti-Fas mAb or 1 μg/ml of TNF-α in the presence of 0.1 μg/ml of cyclohexamide (CHX) for 12 hours and apoptotic cells were counted. The infection frequency of pBabeMN-Lyt-2-α′ was determined to be 58%. […] Thus the TNF-α and Fas signaling pathways may converge at a common point that can be inhibited by Toso.

Jurkat.ecoR cells [5] = experiment: FADD-induced apoptosis in Jurkat.ecoR cells; format: cell-based, human; conditions: 24 hours postinfection with pBabeMN-FADD
Protocol: Fas-mediated apoptosis is activated through FADD. For FADD-induced apoptosis, mouse FADD (a gift from Dr. Angeles Estelles, Dept. Mol. Pharm., Stanford Univ.) was ligated into pBabeMN retroviral vector. Jurkat.ecoR cells expressing Lyt-2-α′ or Toso were infected with pBabeMN-LacZ or pBabeMN-FADD. After 24 hours infection with FADD, the cells were stained with ethidium bromide and acridine orange and counted the apoptotic cells. The effect of Toso on FADD-induced apoptosis was investigated by infecting Jurkat.ecoR cells expressing Lyt-2-α′ or Toso, with pBabeMN-LacZ or pBabeMN-FADD. The reinfection efficiency was approximately 40% using pBabeMN-LacZ. Jurkat.ecoR cells were infected with pBabeMN-Lyt-2-α′ and pBabeMN-Toso. Infection frequency of pBabeMN-Lyt-2-α′ was determined to be 72%. Jurkat.ecoR cells expressing Lyt-2-α′ or Toso were infected with pBabeMNLacZ or pBabeMN-FADD and apoptotic cells were counted at 24 hourrs postinfection. Infection frequency of pBabeMN-lacZ in Jurkat.ecoR cells expressing Lyt-2-α′ and Toso was determined to be 39% and 43%, respectively.

caspase-8 = experiment: Western blot of caspase-8 processing after Fas activation; format: cell-based, human; conditions: 50 ng/ml anti-Fas mAb, 6 hours, versus control Jurkat.ecoR cells
Protocol: The effect of overexpression of Toso on processing of caspase-8, which associates with FADD, was evaluated. […] To detect caspase-8, whole-cell lysates (2×10^6 cells per lane) were resolved by SDS-PAGE, transferred to an membrane and processed with goat anti-Mch5 p20 antibody (Santa Cruz Biotechnology, Inc., Santa Cruz, Calif. 95060, U.S.A.) as described above.

cFLIP = experiment: semi-quantitative RT-PCR of cFLIP mRNA expression; format: cell-based, human; conditions: Jurkat.ecoR cells
Source text: Recently several groups have reported cFLIP is a caspase-8 inhibitor. We performed semi-quantitative RT-PCR to detect […] expression. To detect […] expression, a 1.1 kbp fragment (998-2061) of the cFLIP gene (U97074) was amplified with primers 5'-[NT] ID NO:32) and 5'-[NT] ID NO:33) for 35 cycles as described above. The sequence of the 1.1 kbp PCR product was verified using cycle sequencing ready reaction kit (Perkin Elmer, Calif. 94404, U.S.A.).

Bcl-2 and Bcl XL = experiment: Western blot of Bcl-2 and Bcl XL expression levels in Toso expressing cells; format: cell-based, human; conditions: data not shown
Protocol: The downstream effects of Toso on known inhibitors of apoptosis, were evaluated by western blot analysis of Bcl-2 and BCI XL expression levels in Toso expressing cells. Bcl-2 overexpression can block Fas-induced apoptosis as well as staurosporine-induced apoptosis (data not shown). No change in the levels of expression of Bcl-2 or BcI XL was observed by Western blot (data not shown).

Jurkat.ecoR cells [6] = experiment: PMA/Ionomycin-induced apoptosis in Jurkat.ecoR clones; format: cell-based, human; conditions: five pBabeMN-Toso-infected clones; 10 ng/ml PMA and 500 ng/ml Ionomycin, 24 hours
Source text: However, following activation with PMA/lonomycin one third of Jurkat cells were clearly resistant to anti-Fas mAb induced apoptosis.
We further tested whether Toso expression could rescue activation-induced programmed cell death. We randomly picked five pBabeMN-Toso-infected Fas resistant Jurkat T cell clones and used these to assay the inhibitory effect of Toso on PMA/lonomycin-induced apoptosis.

human cell lines = experiment: anti-Fas mAb-induced apoptosis in several human cell lines overexpressing Toso; format: cell-based; conditions: data not shown
Source text: Toso was expressed in several human cell lines including Jurkat cells, CemT4 cells (human T cell leukemia), SupT1 cells (human T cell leukemia, a kind gift from Dr. Cleary, M. L., Stanford Univ.), Oli-Ly8 cells (human B cell line; transformed with EBV), AMK cells (human B cell line; transformed with EBV), both a gift from Dr. Negrin, R. S., Stanford Univ., Reh cells (acute lymphocytic leukemia; non T; non B), HL-60 cells (promyelocytic leukemia) and HepG2 cells (hepatoma) using pBabeMN-Toso IRES neo to allow cotranslational selection with Geneticin (GIBCO BRL).

## DEVD-CHO
[1]
  ceramide-induced apoptosis: does not inhibit

## Lyt-2: full length Lyt-2 (mouse CD8α), control [reference compound]
70Z/3 cells; after retroviral infection, in words
  massive / rapid cell death in 70Z/3 cells: did not induce rapid cell death

B1: Toso: novel 390-amino acid Ig superfamily type 1 membrane protein (SEQ ID NO:2), expressed from retroviral vector pBabeMN (protein, listed as Homo sapiens)
chain: MDRWLWPLYFLPVSGALRILPEVKVEGELGGSVTIKCPLPEMHVRIYLCREMAGSGTCGTVVSTTNFIKAEYKGRVTLKQYPRKNLFLVEVTQLTESDSGVYACGAGMNTDRGKTQKVTLNVHSEYEPSWEEQPMPETPKWFHLPYLFQMPAYASSSKFVTRVTTPAQRGKVPPVHHSSPTTQITHRPRVSRASSVAGDKPRTFLPSTTASKISALEGLLKPQTPSYNHHTRLHRQRALDYGSQSGREGQGFHILIPTILGLFLLALLGLVVKRAVERRKALSRRARRLAVRMRALESSQRPRGSPRPRSQNNIYSACPRRARGADAAGTGEAPVPGPGAPLPPAPLQVSESPWLHAPSLKTSCEYVSLYHQPAAMMEDSDSDDYINVPA
Jurkat.ecoR cells [2]; 10 ng/ml anti-Fas mAb with 0.1 μg/ml CHX, 12 hours
  Fas induced apoptosis in the presence of CHX: inhibited Fas induced apoptosis
Jurkat.ecoR cells [2]
  anti-Fas mAb-induced apoptosis: resistant to Fas-mediated apoptosis over a range of antiFas dilutions
Jurkat.ecoR cells [2]; pBabeMN-Toso-IRES-GFP-infected cells, five days with 50 ng/ml anti-Fas mAb
  surviving Jurkat cells that expressed GFP: 99.7%
Jurkat.ecoR cells [3]
  ceramide-induced apoptosis: not resistant
  staurosporine-induced apoptosis: not resistant
Jurkat.ecoR cells [4]
  TNF-α-induced apoptosis: protected against TNF-α-induced apoptosis
Jurkat.ecoR cells [5]
  FADD-induced apoptosis in cells constitutively expressing the construct: failed to induce apoptosis
caspase-8
  processed form (p20) of FLICE after Fas activation: greatly reduced
cFLIP
  cFLIP expression: induced
Bcl-2 and Bcl XL
  levels of expression of Bcl-2 or Bcl XL: No change
Jurkat.ecoR cells [6]
  PMA/Ionomycin-induced apoptosis: significant resistance
Human cell lines; all human T cell lines and B cell line Ocl-Ly8
  apoptosis induced by anti-Fas mAb: inhibited
Human cell lines; the other cell lines
  protection against Fas-induced apoptosis: no significant protection
70Z/3 cells; 70Z/3 cells infected with pBabeMN-Toso
  dead cells after infection: about 70%

B2: FADD: mouse FADD expressed from the pBabeMN retroviral vector, apoptosis inducer (protein, UniProt Q61160 1-205, looked up)
FAS-associated death domain …: MDPFLVLLHSLSGSLSGNDLMELKFLCRERVSKRKLERVQSGLDLFTVLLEQNDLERGHTGLLRELLASLRRHDLLQRLDDFEAGTATAAPPGEADLQVAFDIVCDNVGRDWKRLARELKVSEAKMDGIEEKYPRSLSERVRESLKVWKNAEKKNASVAGLVKALRTCRLNLVADLVEEAQESVSKSENMSPVLRDSTVSSSETP
Jurkat.ecoR cells [5]
  apoptosis induced in control Jurkat cells: 45%

B3: 4.8.HA: full-length Toso with C-terminal influenza hemagglutinin (HA) tag (protein)
chain: RILPEVKVEGELGGSVTIKCPLPEMHVRIYLCREMAGSGTCGTVVSTTNFIKAEYKGRVTLKQYPRKNLFLVEVTQLTESDSGVYACGAGMNTDRGKTQKVTLNVHSEYEPSWEEQPMPETPKWFHLPYLFQMPAYASSSKFVTRVTTPAQRGKVPPVHHSSPTTQITHRPRVSRASSVAGDKPRTFLPSTTASKISALEGLLKPQTPSYNHHTRLHRQRALDYGSQSGREGQGFHILIPTILGLFLLALLGLVVKRAVERRKALSRRARRLAVRMRALESSQRPRGSPRPRSQNNIYSACPRRARGADAAGTGEAPVPGPGAPLPPAPLQVSESPWLHAPSLKTSCEYVSLYHQPAAMMEDSDSDDYINVPA
modifications: left off: small tags and cut ends
notes: full-length Toso with C-terminal influenza hemagglutinin (HA) tag
Jurkat.ecoR cells [2]
  anti-Fas mAb-induced apoptosis: markedly inhibited
70Z/3 cells
  % Viable Cells: 30 ± 4%
  massive / rapid cell death in 70Z/3 cells: massive cell death was observed
